# From patent publication US20210253725A1 (BIONTECH, published 2021)
# B1: P018.S.10.A.B03 (antibody, V domains shown)
# VH: QSLEESGGRLVTPGTPLTLTCTASGFSLSSYDMGWVRQAPGKGLEWIGIISSSGSTYYASWAKGRFTISKTSSTTVDLKMTSLTTEDTATYFCARTSLDGNLWGQGTLVTVSS
# VL: AFEMTQTPSSVSEPVGGTVTIKCQASQSIYNYLSWYQQKPGQPPKLLIYDASALASGVPSRFKGSGSGTDFTLTISDLESADAATYYCQQDYSVSDVDNSFGGGTEVVVK
# notes: V regions on human Ig constant parts; also called AB27_168
# B2: P018.S.05.A.F05 (as anti-CD27 antibody) (antibody, V domains shown)
# VH: QSVEESGGRLVTPGTPLTLTCTVSGFSLSNYYMTWVRQAPGKGLEYIGIIGSGVSTYYANWAKGRFTISKASSTTVDLKMTSPTTEDTATYFCARDMYVGNWGDWGLWGQGTLVTVSS
# VL: AYDMTQTPASVEVAVGGTVTIKCQASQSISNNLNWYQQKPGQPPKLLIYSVSTLASGVPSRFKGSGSGTDYTLTISGVESVDAATYYCQQDYRIGDLDSAFGGGTEVVVK
# notes: V regions on human Ig constant parts; also called AB27_92
# B3: P018.S.03.A.E03 (antibody, V domains shown)
# VH: QSVEESGGRLVTPGTPLTLTCTVSGFSLSTYGMSWVRQAPGKGLEWIGIIDAGDSPYYASWVKGRFTISKTSTTVDLKITSLTTEDTATYFCARIAGSNHGPFSLWGPGTLVTVSS
# VL: DVVMTQTPASVSEPVGGTVTINCQASEFISNYLAWYQQKPGQPPKLLIYGASTLASGVPSRFSGSGSGTQFTLTISDLESDDAATYYCQCTAYGSGYVGFGGGTEVVVK
# notes: V regions on human Ig constant parts; also called AB134_4
# B4: P018.S.12.A.G05 (antibody, V domains shown)
# VH: QSVEESGGRLVTPGTPLTLTCTVSGFSLSTYGMSWVRQAPGKGLEWIGIIDGGDSPYYASWAEGRFTISKTSTTVDLKITSPTTEDTATYFCARIAGSNHGPFDLWGPGTLVTVSS
# VL: DVVMTQTPASVSEPVGGTVTINCQASEFISNYLAWYQQKPGQPPKLLIYGASTLASGVPSRFKGSGSGTDFTLTISDLESADAATYYCQCTAYGSSYVGFGGGTEVVVK
# notes: V regions on human Ig constant parts; also called AB134_87
# B5: P018.S.10.A.F04 (antibody, V domains shown)
# VH: QSVEESGGRLVTPGTPLTLTCTASGFYLSSHYMSWVRQAPGKGLEWIGIIYATGIASYANWAKGRFTISKTSTTVSLKMTSPTTEDTATYFCARYDSQDYYGYGNLWGPGTLVTVSS
# VL: AYDMTQTPASVEVAVGGTVTIKCQASQNIYNNLAWYQQKPGQRPKLLIYRASTLASGVSSQFKGSGSGTEYTLTISGVESADAATYYCQQGYSVHDVYNTFGGGTEVVVK
# notes: V regions on human Ig constant parts; also called AB27_180
# B6: P018.S.10.A.A03 (antibody, V domains shown)
# VH: QSLEESGGRLVTPGTPLTLTCTVSGIDLSSYAMGWVRQAPGKGLEWIGTISTISNTYYASWANGRFTISKTSTTVDLKMTSLTASDTATYFCARGASNTINDYFNLWGQGTLVTVSS
# VL: DIVMTQTPASVSEPVGGTVTIKCQASQSVGNYLAWYQQKPGQPPKLLIYDASNLASGVSSRFKGSGFATEFILTISDLESTDAATYYCHSYVYSSGNVYNGFGGGTEVVVK
# notes: V regions on human Ig constant parts; also called AB27_163
# B7: P018.S.10.A.C02 (antibody, V domains shown)
# VH: QSVEESGGRLVTPGTPLTLTCTVSGIDLSNYAMSWVRQTPGKGLEWIGAIGIGGNTYYASWAKGRFTISRTSTMVDLKVASPTPEDTATYFCARHAGAGVVNWLDLWGQGTLVTVSS
# VL: DVVMTQTPASVSEPVGGTVTIKCQASQSIGSNLAWYQQKPGQPPKLLIYAASDLASGVPSRFSGSGSGTEFTLTISGVQSDDAATFYCQTYGSGSFSSFNLFGGGTEVVVK
# notes: V regions on human Ig constant parts; also called AB27_171
# B8: P018.S.04.A.H05 (antibody, V domains shown)
# VH: QSVEESGGRLVTPGTPLTLTCTVSGFSLSSYAMGWVRQAPGKGLEWIGWINTAGGTDYTSWAKGRFTISKTSTTVDLKVTSLTTEDTATYFCARYDYYYFDLWGQGTLVTVSS
# VL: AQVLTQTASSVSAAVGGTVTISCQSSQSVYDNNWLAWYQQKPGQPPKLLIYSASTLASGVPSRFKGSGSGTEFTLTISDLESDDAAAYYCHGVYSGSIHAFGGGTEVVVI
# notes: V regions on human Ig constant parts; also called AB134_15
# B9: P018.S.05.A.G05 (antibody, V domains shown)
# VH: QSVEESGGRLVTPGTPLTLTCTVSGIDLSNHGMGWFRQGPGKGLEWIGIIYIDGGASYASWVNGRFTISKTSTTVDLKITSPTTEDTATYFCARGIPSDGDSSYYYFNLWGQGTLVTVAS
# VL: DVVMTQTPASVEAAVGGTVTIKCQASQSVYNKYLSWFQQKPGQPPKLLIYRASTLESGVSSRFKGSGSGTEFTLTISDLESADAATYYCQNNNGAGDNTDYTFGGGTEVVVK
# notes: V regions on human Ig constant parts; also called AB134_18
# B10: P018.S.04.A.F05 (antibody, V domains shown)
# VH: QSVEESGGRLVTPGTPLTLTCTVSGIDLSSYTMGWVRQAPGKGLEYIGIIGTSGTTYYSSWAKGRFTISKTSTTVDLKITSPTTEDTATYFCARLGDDYGDFHFNLWGQGTLVTVSS
# VL: DLVMTQTPASVSEPVGGTVTIKCQASQNIGNYLAWYQQKPGQPPKLLIYAASNLASGVSSRFKGSGSGTEYTLTISDLESADAATYYCQCTYYDSTYFAFGGGTEVVVK
# notes: V regions on human Ig constant parts; also called AB134_12
# B11: P018.S.04.A.G05 (antibody, V domains shown)
# VH: QSVEESGGRLVTPGTPLTLTCTVSGFSLSTYYMSWVRQAPGKSLEWIGCIHGDDGSTWYASWVQGRFTISKASTTVDLQIASPTTEDTATYFCARGLPYWPNDGDFNLWGQGTLVTVSS
# VL: TQVLTQTPSPVSAAVGGTVSISCQSSQSVYNNNWLSWFQQKPGQPPKLLVYGASTLASGVPSRFKGSGSGTQFTLTISDLESDDAATYYCAGGYYTTSDNGFGGGTEVVVK
# notes: V regions on human Ig constant parts; also called AB134_14
# What was measured:
# [1] = molecular target: T1, CD27 protein (His-tagged, Sino Biological Inc. 10039-H08B1) (human, UniProt P26842 20-192); assay: ELISA, coated His-tagged CD27; further: test concentration or dose not given here
# T1 construct: bought protein coated on ELISA plates; also called TNFRSF7; not shown: His tag
# T1 sequence (looked up): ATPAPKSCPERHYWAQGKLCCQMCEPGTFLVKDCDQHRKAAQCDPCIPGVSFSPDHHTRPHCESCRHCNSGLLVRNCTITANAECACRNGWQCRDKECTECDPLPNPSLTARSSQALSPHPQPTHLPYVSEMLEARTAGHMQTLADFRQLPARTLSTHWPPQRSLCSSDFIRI
# [2] = molecular target: T2, CD27 expressed on the cell surface of HT1080_CD27 cells (human, UniProt P26842 20-260); assay: cell-based or functional assay
# T2 sequence (looked up): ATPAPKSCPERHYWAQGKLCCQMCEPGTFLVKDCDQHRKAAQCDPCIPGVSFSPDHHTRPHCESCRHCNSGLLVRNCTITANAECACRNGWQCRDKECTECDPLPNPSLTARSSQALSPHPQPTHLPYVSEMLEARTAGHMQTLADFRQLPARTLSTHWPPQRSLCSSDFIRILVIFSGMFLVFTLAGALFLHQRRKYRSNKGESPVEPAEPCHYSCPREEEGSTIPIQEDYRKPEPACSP
# [3] = molecular target: T2, CD27 expressed on the cell surface of …; assay: cell-based or functional assay; remark: listed apart in the source
# [4] = molecular target: T2, CD27 expressed on the cell surface of …; assay: HT1080_CD27 cells, imaging; further: test concentration or dose not given here
# [5] = molecular target: T3, CD134 expressed on the cell surface of HT1080_OX40 cells (human, UniProt P43489 29-277); assay: HT1080_OX40 cells, imaging; further: test concentration or dose not given here
# T3 construct: whole, on cells; species not restated for the HT1080 transfectant
# T3 sequence (looked up): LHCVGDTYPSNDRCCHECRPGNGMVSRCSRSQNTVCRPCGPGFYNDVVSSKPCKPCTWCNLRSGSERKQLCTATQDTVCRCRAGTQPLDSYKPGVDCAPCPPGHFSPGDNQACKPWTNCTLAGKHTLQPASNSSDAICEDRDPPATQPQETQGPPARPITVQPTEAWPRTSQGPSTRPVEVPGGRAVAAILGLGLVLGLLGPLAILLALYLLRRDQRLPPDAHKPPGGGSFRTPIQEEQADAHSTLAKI
# [6] = molecular target: T4, CD134 protein (His-tagged, Sino Biological Inc. 10481-H08H) (human, UniProt P43489 29-216); assay: ELISA, coated His-tagged CD134; further: test concentration or dose not given here
# T4 construct: bought protein coated on ELISA plates; also called OX40; TNFRSF4; not shown: His tag
# T4 sequence (looked up): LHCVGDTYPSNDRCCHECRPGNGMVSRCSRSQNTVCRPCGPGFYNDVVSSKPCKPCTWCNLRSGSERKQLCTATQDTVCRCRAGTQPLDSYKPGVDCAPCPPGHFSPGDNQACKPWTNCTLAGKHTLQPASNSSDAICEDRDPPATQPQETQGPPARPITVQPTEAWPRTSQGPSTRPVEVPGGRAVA
# [7] = molecular target: T3, CD134 expressed on the cell surface of …; assay: cell-based or functional assay
# [8] = molecular target: T3, CD134 expressed on the cell surface of …; assay: cell-based or functional assay; remark: listed apart in the source
# Wherever Functional assay Cross-linked by F(ab′)2 fragment IL-8 is given: test concentration or dose not given here.
# Wherever Functional assay IL-8 is given: test concentration or dose not given here.
Binder,ELISA [abs. corr.] [1],"EC 50 (IL-8 release, cross-linked) [2]",Functional assay Cross-linked by F(ab′)2 fragment IL-8 [3],Functional assay IL-8 [3],Cellular binding assay [RFU] [4],Cellular binding assay [RFU] [5],ELISA [abs. corr.] [6],Functional assay Cross-linked by F(ab′)2 fragment IL-8 [7],Functional assay IL-8 [7],"EC 50 (IL-8 release, cross-linked) [8]"
B1,2.24 abs. corr.,1.94 µg/mL,2.07 abs. corr.,-0.032 abs. corr.,19 RFU,–,–,–,–,–
B2,2.31 abs. corr.,0.376 µg/mL,2.21 abs. corr.,0.189 abs. corr.,11 RFU,–,–,–,–,–
B3,–,–,–,–,–,419 RFU,2.72 abs. corr.,2.54 abs. corr.,0.314 abs. corr.,0.529 µg/mL
B4,–,–,–,–,–,570 RFU,2.04 abs. corr.,2.19 abs. corr.,0.13 abs. corr.,0.745 µg/mL
B5,2.89 abs. corr.,1.27 µg/mL,2.32 abs. corr.,0.273 abs. corr.,133 RFU,–,–,–,–,–
B6,2.81 abs. corr.,0.513 µg/mL,2.06 abs. corr.,1.02 abs. corr.,198 RFU,–,–,–,–,–
B7,2.9 abs. corr.,0.414 µg/mL,2.28 abs. corr.,0.631 abs. corr.,238 RFU,–,–,–,–,–
B8,–,–,–,–,–,451 RFU,2.97 abs. corr.,2.39 abs. corr.,0.356 abs. corr.,1.17 µg/mL
B9,–,–,–,–,–,463 RFU,2.62 abs. corr.,2.39 abs. corr.,2.62 abs. corr.,0.975 µg/mL
B10,–,–,–,–,–,368 RFU,2.44 abs. corr.,2.4 abs. corr.,0.181 abs. corr.,0.225 µg/mL
B11,–,–,–,–,–,451 RFU,2.87 abs. corr.,2.41 abs. corr.,-0.022 abs. corr.,0.669 µg/mL
